The numbers were not newly measured in publication PMC10889394, which cites them from elsewhere.

In one data set the target is TIMP-2 (Homo sapiens) (UniProt P16035).
In data set [1] the target is cystatin E (Homo sapiens) (UniProt Q15828).
Data set [2] concerns the target recombinant hirudin variant 1 (Hirudo medicinalis) (UniProt P01050).
Data set [3] concerns the target SFTI-TCTR-N12N14 (synthetic construct).
Data set [4] addresses SFTI-1 (Helianthus annuus) (UniProt Q4GWU5).

pKi: −log10 of the molar value.

β-trypsin, sequence (P00760 149-246): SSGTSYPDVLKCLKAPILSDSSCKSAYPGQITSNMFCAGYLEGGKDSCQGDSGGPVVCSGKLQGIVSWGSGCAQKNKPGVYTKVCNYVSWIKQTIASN
TIMP-2 (Homo sapiens), sequence (P16035 27-220): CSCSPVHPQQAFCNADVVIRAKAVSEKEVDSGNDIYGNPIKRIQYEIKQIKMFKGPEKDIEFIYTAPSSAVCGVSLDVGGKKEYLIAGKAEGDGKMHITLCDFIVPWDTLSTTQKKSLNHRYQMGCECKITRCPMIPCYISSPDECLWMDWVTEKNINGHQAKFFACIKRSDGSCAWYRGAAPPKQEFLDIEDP
cystatin E (Homo sapiens), sequence (Q15828 29-149): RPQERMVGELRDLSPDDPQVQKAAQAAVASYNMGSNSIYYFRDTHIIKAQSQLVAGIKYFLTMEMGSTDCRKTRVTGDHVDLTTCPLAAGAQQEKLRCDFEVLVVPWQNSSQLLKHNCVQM

Broadly, the pKi is the negative decadic logarithm of the Ki, by convention in mol/L. As for “MMP-14 catalytic domain (from UniProt P50281)”, the pKi in the data set with TIMP-2 (Homo sapiens) is 9.98. With legumain (from UniProt Q99538), the pKi in data set [1] was 10.96. Turning to thrombin (from UniProt P00734), the pKi in data set [2] is 12.74. With β-trypsin (from UniProt P00760), the values for the pKi in data set [3] and in data set [4] were 9.15 and 10.77, respectively.
